This assay deals with WT Atezolizumab scFv-His6, purified. Put plainly: mass photometry; Refeyn TwoMP, room temperature, 1X PBS; PD-L1 at 7.4, 18.5 and 74 nM; each scFv at 100 nM.

For the substance WT Atezolizumab scFv-His6, purified, the stoichiometry N was determined as 2.

In general, stoichiometry N refers to a count of units in the complex or per binding partner.
